Measurements taken from patent publication US5538946A, “Hirudin derivatives with delayed action” (Hoechst Aktiengesellschaft, priority 1988, dated 1996).

Biological target: thrombin (Homo sapiens, UniProt P00734)
Assay: In vitro thrombin inhibition assay (coagulation time) as in Example 2, with re-use of isolated Sepharose-hirudin
Type: biochemical
Settings: isolated from treated plasma, washed with 1 to 1.5 M NaCl, employed again
Experimental: Female and male Wistar rats with a body weight of about 300 g are anesthetized with ethylurethane (1.5 g/kg i.p.). 1000 AT-U/kg of a hirudin derivative or authentic `Leu-Thr-hirudin`, which has been dissolved in physiological saline, are administered i.v. to the rats. A catheter is implanted in the carotid of the animals for blood sampling. Blood is taken from the animals and treated with citrate for the determination of anti-thrombin activity. 0.1 ml of the blood treated in this way is mixed with 0.2 ml of Tris/HCl buffer (0.1 mol/1; pH 7.4) and preincubated at 37° C. After addition of 0.1 ml of a thrombin solution (10 NIH-U/ml) the coagulation time is determined using a Schnitger and Gross coagulometer. In parallel with the experiment a calibration plot is constructed using reference plasma, from which the particular plasma hirudin or plasma hirudin derivative concentration is read off.
The protein coupling yield is 5 %. The biological activity is determined in vitro as in Example 2. The Sepharose-hirudin is isolated from the treated plasma, washed with a 1 to 1.5 M NaCl solution and again employed in the inhibition assay.

“Sepharose-hirudin: hirudin immobilised on activated CH-Sepharose 4 B (Pharmacia)” was tested. Which “measured activity on re-use in the inhibition assay” value did it give?
The value was “within the limit of error of the first measurement”.
